Measurements: patent US20240053360A1 (EQUILLIUM, published 2024)

Biological target: T1, cell surface CD6 on human T cells (CD4 and CD8 T cells of PBMCs / whole blood) (human, UniProt P30203 18-668)
T1 construct: whole, on cells
T1 sequence (looked up): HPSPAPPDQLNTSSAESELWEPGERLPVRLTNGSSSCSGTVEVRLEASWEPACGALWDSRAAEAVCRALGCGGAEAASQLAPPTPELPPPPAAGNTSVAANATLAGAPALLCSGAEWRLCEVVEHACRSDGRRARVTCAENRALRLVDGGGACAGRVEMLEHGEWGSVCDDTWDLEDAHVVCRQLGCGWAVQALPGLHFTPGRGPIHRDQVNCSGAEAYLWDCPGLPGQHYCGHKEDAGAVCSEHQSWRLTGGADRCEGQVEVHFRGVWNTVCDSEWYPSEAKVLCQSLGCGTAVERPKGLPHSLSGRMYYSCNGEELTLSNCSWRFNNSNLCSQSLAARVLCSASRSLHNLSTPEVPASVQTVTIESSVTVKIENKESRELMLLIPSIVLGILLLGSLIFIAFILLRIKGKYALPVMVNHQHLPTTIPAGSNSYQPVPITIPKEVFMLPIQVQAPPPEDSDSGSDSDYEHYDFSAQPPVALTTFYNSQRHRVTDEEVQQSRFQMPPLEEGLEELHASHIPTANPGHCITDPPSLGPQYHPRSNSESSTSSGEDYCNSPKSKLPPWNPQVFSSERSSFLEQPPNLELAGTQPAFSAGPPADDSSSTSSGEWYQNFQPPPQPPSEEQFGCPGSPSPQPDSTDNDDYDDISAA
Test: flow cytometry, receptor occupancy on CD4 and CD8 T cells

B1: itolizumab (antibody, human IgG1, kappa, V domains shown)
VH: EVQLVESGGGLVKPGGSLKLSCAASGFKFSRYAMSWVRQAPGKRLEWVATISSGGSYIYYPDSVKGRFTISRDNVKNTLYLQMSSLRSEDTAMYYCARRDYDLDYFDSWGQGTLVTVSS
VL: DIQMTQSPSSLSASVGDRVTITCKASRDIRSYLTWYQQKPGKAPKTLIYYATSLADGVPSRFSGSGSGQDYSLTISSLESDDTATYYCLQHGESPFTLGSGTKLEIKR
notes: Humanized anti-CD6 monoclonal antibody; also called EQ001; ALZUMAB
- binding result: binds
